{"source": "patent US20170218047A1", "about": "“NOVEL FUSION PARTNERS FOR THE PURPOSE OF CRYSTALLIZING G-PROTEIN COUPLED RECEPTORS” (THE SCRIPS RESEARCH INSTITUTE, priority 2011, published 2017)", "molecules": {"B1": {"name": "S1P1-flavodoxin: S1P1 receptor with flavodoxin replacing part of ICL3, SEQ ID NO: 3 (protein, listed as Homo sapiens)", "chain": "MGPTSVPLVKAHRSSVSDYVNYDIIVRHYNYTGKLNISADKENSIKLTSVVFILICCFIILENIFVLLTIWKTKKFHRPMYYFIGNLALSDLLAGVAYTANLLLSGATTYKLTPAQWFLREGSMFVALSASVFSLLAIAIERYITMLKMKLHNGSNNFRLFLLISACWVISLILGGLPIMGWNCISALSSCSTVLPLYHKHYILFCTTVFTLLLLSIVILYCRIYSLVRTRAKALIVYGSTTGNTEYTAETIARELADAGYEVDSRDAASVEAGGLFEGFDLVLLGCSTWGDDSIELQDDFIPLFDSLEETGAQGRKVACFGCGDSSWEYFCGAVDAIEEKLKNLGAEIVQDGLRIDGDPRAARDDIVGWAHDVRGAIASRSSENVALLKTVIIVLSVFIACWAPLFILLLLDVGCKVKTCDILFRAEYFLVLAVLNSGTNPIIYTLTNKEMRRAFIRIM"}}, "assay": "Size exclusion chromatography (SEC) of purified S1P1-fusion partner proteins", "assay_type": "physicochemical", "conditions": "presence or absence of ligand", "method": "S1P1-fusion partner proteins (“S1P1 fusion receptors”) were purified from membranes by dodecyl-maltoside (DDM) extraction followed by immobilized metal affinity chromatography (IMAC) on Talon resin (Clontech) as detailed below. Frozen cellular membranes were thawed by adding room temperature lysis buffer to a total volume of 25 mL. The S1P1 receptor antagonist W146 was added to a final concentration of 125 μM. The mixture was allowed to incubate at room temperature for 1 hour to ensure complete saturation of the receptor with ligand followed by addition of iodoacetamide to a concentration of 1 mg/mL and an additional 1 hour incubation at 4° C. Receptor solubilization was initiated by addition of detergent and cholesteryl hemisuccinate (CHS) to achieve a final concentration of 0.5% DDM 0.1% CHS. The solubilization buffer consisted of the following mixture: 50 mM Hepes pH 7.5; 800 mM NaCl; 30 mM Imidazole; 0.1% DDM 0.02% CHS; 125 μM W146. […]\nEluted proteins were analyzed by size-exclusion chromatography (SEC) followed by SDS-PAGE. […] SEC fractions corresponding to S1P1-fusion partner proteins were evaluated separated by SDS-PAGE on a 10% gel and stained, confirming that each S1P1-fusion partner protein could be purified to near-homogeneity (data not shown)."}
{"molecule": "B1", "values": [{"measurement": "stability by SEC (in words)", "result": "stable in the presence or absence of ligand"}]}
